Earlier results on one substance are cited in publication PMC4246237.

Data set [1] addresses AVP (Human adenovirus 2) (UniProt P03252).
Data set [2] shares this target. The source holds these as a separate data set.

pKd: −log10 of the molar value. Where two headings read alike, the source gives them in different places.

Chain of UniProt P03252 (P03252 whole entry): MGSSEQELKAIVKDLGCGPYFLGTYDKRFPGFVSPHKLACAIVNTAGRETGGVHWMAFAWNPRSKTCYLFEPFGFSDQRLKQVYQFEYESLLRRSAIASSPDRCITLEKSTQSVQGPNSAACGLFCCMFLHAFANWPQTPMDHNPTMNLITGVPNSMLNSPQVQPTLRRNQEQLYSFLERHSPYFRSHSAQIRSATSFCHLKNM

In general, pKd refers to the negative decadic logarithm of the Kd, by convention in mol/L. For the substance pVIc pVIc (from UniProt P03274), the pKd was 7.05 in the data set with AVP (Human adenovirus 2) [1] and 5.36 with AVP (Human adenovirus 2) [2].
